Source: the supplement of paper PMC10567573
± gives the standard deviation.

Assay: protein stability index of a GFP-peptide fusion (GPS, HEK-293T) (PSI 1-6); higher = more stable
Conditions: c terminus: a fixed tail appended
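Note: 24-mer peptide tiles fused after GFP, lentivirally expressed, FACS-sorted into six equal bins by GFP/DsRed ratio, decoded by Illumina sequencing, PSI is the read-weighted mean bin number.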

| Sequence | protein stability index (treatment: DMSO) | protein stability index (treatment: MLN4924 1 uM, 8 h) |
| --- | --- | --- |
| YPCIPNHELVWAKMKGFGFWPAKV [ZMYND11] | 3.09 ± 1.4 | 2.19 ± 0.3 |
| KGAILTTMLATRNFSAAKSLLNKK [CAMK2B] | 2.91 ± 0.18 | 3.04 ± 0.24 |
| IVVATLPIPVVFVLRHFHLLSDGS [SLC6A17] | 2.92 ± 0.56 | 3.21 ± 0.24 |
| ALPSVMRFCCCVAVIYLGYCFCGW [MCOLN1] | 2.76 ± 0.59 | 2.83 ± 0.31 |
| GALQIEQSEESDQGKYECVATNSA [PTPRD] | 5.18 ± 0.097 | 5.39 ± 0.31 |
| IVSILPYFITLGTDLAQQQGGGNG [KCNA4] | 2.92 ± 0.36 | 2.54 ± 0.23 |
| KNSMENGRPPDPADWAVMDVVNYF [SAMD13] | 3.3 ± 0.26 | 3.28 ± 0.2 |
| PGAFGTILTFLRAGKLRLLREMCA [KCNG1] | 2.84 ± 0.33 | 2.8 ± 0.062 |
| VEVDAAPAVDLNQVLNETRNQYEA [KRT33B] | 4.91 ± 0.29 | 5.17 ± 0.21 |
| PCPEDASTPRPPEASSSPPEGSQD [TLE6] | 5.52 ± 0.16 | 5.53 ± 0.17 |
| KVYDDMAFRYLSWILFPLLGCYAV [CLPTM1] | 3.15 ± 0.23 | 3.07 ± 0.55 |
| MGVGKASASDGSSFVVARYFPAGN [GLIPR2] | 3.13 ± 0.26 | 2.96 ± 0.26 |
| VVRLLLEHYRVQTQQTGTVRFDGY [FEM1B] | 2.62 ± 0.57 | 2.63 ± 0.58 |
| ALLALDENFDHNTLALILQIPTQN [PPFIA4] | 2.21 ± 0.47 | 2.17 ± 0.29 |
| GIELMEVDPIGHLYIFATCLGLSY [MAGEA3] | 2.72 ± 0.9 | 2.85 ± 1.2 |
| STAHASAQSLAGGSRRTKEEELQC [TPD52L1] | 5.16 ± 0.15 | 5.12 ± 0.23 |
| DLVERALYSMECAFHPLFSLTSGA [TCF25] | 3.09 ± 1.3 | 2.84 ± 0.93 |
| MESLISAPLVKTLEKEEEKDLVMY [CDC25B] | 4.56 ± 0.062 | 4.61 ± 0.24 |
| DESLCPQHHEALSLFCYEDQEAVC [TRIM39] | 4.7 ± 0.057 | 4.69 ± 0.16 |
| KFIKPWESPDEMELDELLKEISRK [PTPRD] | 2.32 ± 0.41 | 2.76 ± 0.38 |
| NKDGIGEICLWGRHIFMGYLESET [ACSBG2] | 2.29 ± 0.46 | 2.02 ± 0.31 |
| DLRHLRAVPTDEARAFAEKNGLSF [RAB11A] | 3.54 ± 0.2 | 3.52 ± 0.22 |
| QLQPTFTPMRVALAGTFHYYSCER [NSDHL] | 2.18 ± 0.24 | 2.26 ± 0.044 |

| Sequence | protein stability index (treatment: DMSO) | protein stability index (treatment: MLN4924 1 uM, 8 h) |
| --- | --- | --- |
| EECTDLQKEGEFSTCFTELQRDFL [OAS1] | 4.5 ± 0.32 | 4.52 ± 0.47 |
| RGYWGDIATGPFVAFGIEADDESL [DNAAF3] | 3.65 ± 0.22 | 3.65 ± 0.43 |
| KLPRKVLQHVSEPQAHQESTRGAA [SPACA9] | 4.59 ± 0.13 | 4.76 ± 0.17 |
| QAPISAPEYTYGISNIDTTIEGTS [MFF] | 4.67 ± 0.42 | 4.55 ± 0.21 |
| EIARREKELEARVRKPAEAERYKL [FLOT1] | 4.4 ± 0.1 | 4.45 ± 0.22 |
| LEPEAAEEALENGPKESLPVIAAP [ACBD3] | 5.67 ± 0.25 | 5.64 ± 0.24 |
| GAGLLSSISELKHALSGHAKVKPF [TPH1] | 2.86 ± 0.095 | 3.02 ± 0.12 |
| RSRLRPRDDLDRLGVFLDYEAGVL [TRIM14] | 2.47 ± 0.4 | 2.59 ± 0.48 |
| FTRKTLAEKKQELDKLRNEWASHT [SASS6] | 3.15 ± 0.47 | 3.77 ± 0.6 |
| LQGFDQLRLEGLLCDVTLMPGDTD [KLHL13] | 3.61 ± 0.36 | 3.88 ± 0.32 |
| PTYGRSFTLASSSDTRVGAPATGS [CHIT1] | 4.29 ± 0.25 | 4.12 ± 0.36 |
| DRKVLLKSDSPTGDVLLDETLKHI [GOLPH3L] | 4.17 ± 0.16 | 4.54 ± 0.3 |
| ENSHTNTEVLRNMGFAAKAMKSVH [CHMP4C] | 3.61 ± 0.28 | 3.77 ± 0.23 |
| SLGKARTAQVQKDARIGEAEAKRD [FLOT1] | 5.31 ± 0.21 | 5.12 ± 0.36 |
| DLRHLRAVPTDEARAFAEKNNLSF [RAB11B] | 3.63 ± 0.15 | 3.54 ± 0.23 |
| PDALSDVGEVPYWVLEPVLEGWRP [ELOA2] | 3.07 ± 0.26 | 3.13 ± 0.54 |
| PYKCPECGKSFSRSSHLVIHERTH [ZNF263] | 3.23 ± 0.54 | 3.28 ± 0.64 |
| MVGEEKMSLRNRLSKSRENPEEDE [SOAT1] | 5.52 ± 0.16 | 5.44 ± 0.21 |
| EAVFGKYGRIVEVLLMKDRETNKS [RBMX] | 2.53 ± 0.29 | 2.85 ± 0.52 |
| SNSCPAELPNIKREISETEAKALL [TFE3] | 5.1 ± 0.098 | 5.18 ± 0.12 |
| WTVANMEEIKKLTTDPDLILEVLR [LARP4] | 2.15 ± 0.29 | 2.62 ± 0.27 |
| LSQAGQKTSAALSTVGSAISRKLG [TPD52L2] | 3.67 ± 0.22 | 3.92 ± 0.27 |
| LRTIPSPYPASKADIPSVAFSSRL [DCAF4] | 2.79 ± 0.34 | 2.94 ± 0.35 |

| Sequence | protein stability index (treatment: DMSO) | protein stability index (treatment: MLN4924 1 uM, 8 h) |
| --- | --- | --- |
| AEEAGLKNNDLVVAVNGESVETLD [PDZK1] | 5.49 ± 0.2 | 5.51 ± 0.26 |
| PQTRSGPECGLAKKPPEESTCFER [ADAMTSL2] | 5.05 ± 0.22 | 5.08 ± 0.33 |
| EHPEALSCLLLQLRREKPSEEMVK [INTS3] | 3.38 ± 0.43 | 3.57 ± 0.26 |
| KPPQNPVDTYDVQVTAPGAPPLQA [TNXB] | 4.84 ± 0.35 | 4.46 ± 0.3 |
| IVHVEKEEVPEGMEEAAVASVVLP [BCL2L13] | 5.11 ± 0.16 | 5.07 ± 0.19 |
| LSPEVLRKDPYGKPVDMWACGVIL [CAMK2D] | 2.74 ± 0.55 | 2.14 ± 0.71 |
| WGVCEPQREEVEERMWAAIQSWDI [ZER1] | 3.35 ± 0.22 | 3.56 ± 0.3 |
| ALLTGGGSENRNHRLLNMARNNND [RNF180] | 3.7 ± 0.41 | 3.76 ± 0.35 |
| ACYFGHRQVVQDLLKAGAEVNVLN [OSBPL1A] | 2.46 ± 0.2 | 2.6 ± 0.38 |
| IFEGNSEKEIPVLNELPVPMVARY [CPXM2] | 3.55 ± 0.16 | 3.37 ± 0.33 |
| EDSRTSKESMSEADRAQKMDGESE [EHMT1] | 5.5 ± 0.33 | 5.64 ± 0.23 |
| PVKTLPFSPSQFLNFWNKQDTLEL [MYBL2] | 2.36 ± 0.37 | 2.43 ± 0.31 |
| PGQEKGSALEGRADTTTGSAAGPP [EHMT1] | 5.39 ± 0.22 | 5.48 ± 0.17 |
| SFGWSDRAKVKTDDIARIYQPKRY [FAM98B] | 2.9 ± 0.38 | 2.99 ± 0.54 |
| SSTSYRRTFGPPPSLSPGAFSYSS [PRPH] | 3 ± 0.28 | 3.21 ± 0.3 |
| SRFISANLPCNKFKNRLVNIMPYE [PTPRD] | 2.13 ± 0.42 | 1.98 ± 0.13 |
| DSAQVARLWGIRKNRPAMNYDKLS [SPDEF] | 3.24 ± 0.22 | 3.35 ± 0.23 |
| VSVPENLPVGTQLLTVTATDRDEG [PCDHGA10] | 5.42 ± 0.38 | 5.27 ± 0.12 |
| MVFSGLCPLLLGSVMAIERCIGVT [PTGFR] | 3.4 ± 0.078 | 3.37 ± 0.41 |
| ELDDPGQPVSLRRRKREVLVEDMV [ZNF24] | 4.66 ± 0.12 | 4.68 ± 0.17 |
| QQKLVIDTVTEVTARMEMLIEELY [CBY2] | 2.55 ± 0.26 | 2.7 ± 0.42 |
| AFAERYAPDKTSTVLTRHSQPATP [PDLIM7] | 4 ± 0.3 | 3.82 ± 0.18 |
| RLASYLDKVRALEEANADLEVKIR [KRT16] | 2.39 ± 0.26 | 2.59 ± 0.5 |

| Sequence | protein stability index (treatment: DMSO) | protein stability index (treatment: MLN4924 1 uM, 8 h) |
| --- | --- | --- |
| LTLSAGDLGGSIYANLALSGLIEI [SLC22A15] | 2.77 ± 0.91 | 3.43 ± 0.74 |
| SPDKDSIMNIEPAILVMHHSMKPH [INTS3] | 3.32 ± 0.3 | 3.5 ± 0.2 |
| MNGEECAEDLRMLDASGEKMNGSH [IKZF1] | 5.15 ± 0.39 | 5.31 ± 0.18 |
| PLSLVKRTDLKDLIIFDKQSSQRM [CEP70] | 2.97 ± 0.51 | 3.18 ± 0.44 |
| LQKVLLMLVDGIDPNFKMEHQNKR [EHMT1] | 2.62 ± 0.73 | 2.38 ± 0.33 |
| EQLLVLVEWAKYIPAFCELPLDDQ [HNF4A] | 2.57 ± 0.78 | 2.46 ± 0.42 |
| LILSIIFIEGYCTPEEVIWEALNM [MAGEA10] | 3.32 ± 0.44 | 3.21 ± 0.79 |
| YLKNLPLLSKYCGYREDNIPQLED [TPH1] | 2.57 ± 0.09 | 2.77 ± 0.2 |
| TVARPVFTEYQASAFGNVKLVVHD [RHOBTB3] | 3.06 ± 0.33 | 3.17 ± 0.23 |
| SVIEPVQESSFRSRKIAVEDENDL [MIA2] | 5.05 ± 0.49 | 5.21 ± 0.49 |
| VFLNLHTLKFYCLPDNYEIIDSSL [USP39] | 3.08 ± 0.48 | 2.58 ± 0.33 |
| GKELAGTMDGEGTLFQTESPQSGS [PBXIP1] | 5.42 ± 0.43 | 5.38 ± 0.17 |
| PNIPKAKSLDGVTNDRTASQGQWG [DHCR7] | 4.65 ± 0.29 | 4.84 ± 0.29 |
| VHVFGDELSLVTLFRCIQNMPETL [TNFSF13B] | 2.5 ± 0.31 | 2.58 ± 0.58 |
| AFSPIVILTERVSLPFKPFAIILP [MIA2] |  | 2.87 ± 0.24 |
| IEREVNILREIRHPNIITLHDIFE [DAPK3] | 2.69 ± 0.17 | 2.71 ± 0.42 |
| SKPSIQPKPLLLPAAPKTQTISSI [ATF6] | 3.88 ± 0.32 | 3.82 ± 0.31 |
| SGGITHDTFQKELMCFDPDTDKWI [KLHL13] | 3.94 ± 0.16 | 4.17 ± 0.25 |
| IALDLTPVIEELTNAGFLQTESEL [FAN1] | 2.46 ± 0.26 | 2.57 ± 0.37 |
| EDSVSRLEKEIEVLERGDSAPATA [PALM] | 5.49 ± 0.23 | 5.47 ± 0.18 |
